Test results: doi:10.1101/2025.11.21.689678 (bioRxiv, 2025)

Molecular target: MBP-MAGEA6 (human (cDNA from A549 cells), UniProt P43360 1-314)
Experiment: pull-down

Sequence of MBP-MAGEA6 (P43360 whole entry): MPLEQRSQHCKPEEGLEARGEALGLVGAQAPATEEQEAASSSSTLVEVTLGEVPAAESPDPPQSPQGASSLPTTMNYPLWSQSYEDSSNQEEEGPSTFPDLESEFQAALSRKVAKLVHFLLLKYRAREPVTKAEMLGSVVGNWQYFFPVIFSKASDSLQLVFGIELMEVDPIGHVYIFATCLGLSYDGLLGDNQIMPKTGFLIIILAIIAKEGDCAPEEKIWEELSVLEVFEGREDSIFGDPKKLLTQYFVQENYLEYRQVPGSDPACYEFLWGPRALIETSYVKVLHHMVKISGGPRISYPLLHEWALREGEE

B1: His-Flag-ALKBH2 (natural protein, human, UniProt Q6NS38 1-261, looked up)
chain: MDRFLVKGAQGGLLRKQEEQEPTGEEPAVLGGDKESTRKRPRREAPGNGGHSAGPSWRHIRAEGLDCSYTVLFGKAEADEIFQELEKEVEYFTGALARVQVFGKWHSVPRKQATYGDAGLTYTFSGLTLSPKPWIPVLERIRDHVSGVTGQTFNFVLINRYKDGCDHIGEHRDDERELAPGSPIASVSFGACRDFVFRHKDSRGKSPSRRVAVVRLPLAHGSLLMMNHPTNTHWYHSLPVRKKVLAPRVNLTFRKILLTKK
B1: binds.
